Experimental data reported in doi:10.1101/2023.06.17.545410 (bioRxiv, 2023).

Molecular target: T1, HsTHUMPD2 (purified) (human, UniProt Q9BTF0-1 1-503)
T1 sequence (looked up): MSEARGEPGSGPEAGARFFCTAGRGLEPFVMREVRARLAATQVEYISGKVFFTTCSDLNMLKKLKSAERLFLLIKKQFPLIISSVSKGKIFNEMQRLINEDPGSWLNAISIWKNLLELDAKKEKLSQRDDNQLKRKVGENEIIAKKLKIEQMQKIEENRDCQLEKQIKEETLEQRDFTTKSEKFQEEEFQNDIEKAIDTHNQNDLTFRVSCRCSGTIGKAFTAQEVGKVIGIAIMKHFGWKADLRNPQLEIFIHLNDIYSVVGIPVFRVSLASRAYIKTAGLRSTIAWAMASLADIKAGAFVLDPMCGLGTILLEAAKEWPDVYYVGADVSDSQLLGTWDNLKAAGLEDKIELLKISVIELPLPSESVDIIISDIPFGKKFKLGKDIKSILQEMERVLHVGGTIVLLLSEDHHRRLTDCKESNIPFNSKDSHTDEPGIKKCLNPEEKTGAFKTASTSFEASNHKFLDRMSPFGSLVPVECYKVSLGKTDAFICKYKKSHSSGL
Experiment: SEC

binding result: binds
B1: HsTRMT112 (purified) (natural protein, human, UniProt Q9UI30-1 1-125, looked up)
chain: MKLLTHNLLSSHVRGVGSRGFPLRLQATEVRICPVEFNPNFVARMIPKVEWSAFLEAADNLRLIQVPKGPVEGYEENEEFLRTMHHLLLEVEVIEGTLQCPESGRMFPISRGIPNMLLSEEETES
